In US11278600B2, “Human alpha-galactosidase variants” (Codexis, Inc., priority 2014, dated 2022):
Numbering of substitutions follows the chain as printed.

B1: 613 (protein)
chain: LDNGLARTPTMGWLHWERFMCNLDCQEEPDSCISEKLFMEMAERMVNEGWKDAGYEYLCIDDCWMAPQRDSEGRLQADPQRFPHGIRQLANHVHSKGLKLGIYADVGNKTCAGFPGSFGYYDIDAQTFADWGVDLLKFDGCYCDSLENLADGYKHMSLALNRTGRPIVYSCEWPLYMWPFQKPNYTEIRQYCNHWRNFADIDDSWASIKSILDWTSRNQERIVDVAGPGGWNDPDMLVIGNFGLSWDQQVTQMALWAIMAAPLFMSNDLRAISPQAKALLQDKDVIAINQDPLGKQGYQLRKGDNFEVWERPLSGDAWAVAIINRQEIGGPRSYTIPVASLGKGVACNPACFITQLLPVKRQLGFYNWTSRLKSHINPTGTVLLQLENTQQMSLKDLL
modifications: Synthetic Polypeptide sequence of Variant No. 613 of mature Human GLA
B2: 615 (protein)
chain: B1 chain with A271H, Q390H
modifications: Synthetic Polypeptide sequence of Variant No. 615 of mature Human GLA
B3: 618 (protein)
chain: B1 chain with N47T, Q390M
modifications: Synthetic Polypeptide sequence of Variant No. 618 of mature Human GLA
B4: 620 (protein)
chain: B1 chain with N47T
modifications: Synthetic Polypeptide sequence of Variant No. 620 of mature Human GLA
B5: 623 (protein)
chain: B1 chain with H92Y, A276S, Q390M, M392T
modifications: Synthetic Polypeptide sequence of Variant No. 623 of mature Human GLA
B6: 616 (protein)
chain: B1 chain with N47T, M259W
modifications: Synthetic Polypeptide sequence of Variant No. 616 of mature Human GLA
B7: 624 (protein)
chain: B1 chain with H92Y
modifications: Synthetic Polypeptide sequence of Variant No. 624 of mature Human GLA
B8: 622 (protein)
chain: B1 chain with M259W, M392T
modifications: Synthetic Polypeptide sequence of Variant No. 622 of mature Human GLA
B9: 625 (protein)
chain: B1 chain with N47T, Q390M, M392T
modifications: Synthetic Polypeptide sequence of Variant No. 625
B10: 627 (protein)
chain: B1 chain with M259W, Q390H, M392T
modifications: Synthetic Polypeptide sequence of Variant No. 627 of mature Human GLA
B11: 626 (protein)
chain: B1 chain with N47S
modifications: Synthetic Polypeptide sequence of Variant No. 626 of mature Human GLA
B12: 619 (protein)
chain: B1 chain with N47T, Q390H
modifications: Synthetic Polypeptide sequence of Variant No. 619 of mature Human GLA
B13: 617 (protein)
chain: B1 chain with N47S, L136V, M259A, A271H
modifications: Synthetic Polypeptide sequence of Variant No. 617 of mature Human GLA
B14: 621 (protein)
chain: B1 chain with N47T, M259E
modifications: Synthetic Polypeptide sequence of Variant No. 621 of mature Human GLA
B15: 614 (protein)
chain: B1 chain with N47T, A271H, Q390M
modifications: Synthetic Polypeptide sequence of Variant No. 614 of mature Human GLA

Assay: HTP-analysis of yeast culture supernatants, no challenge (MUGal hydrolysis)
Assay type: biochemical
Conditions: activity of the variant/activity of Rd3BB (SEQ ID NO: 13), yeast supernatant
Method in brief: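 GLA variants expressed in yeast INVSc1, secreted into SD-Ura broth over 66-84 h at 30° C; clarified supernatants tested without challenge. Supernatant mixed with McIlvaine buffer pH 4.8 and 2 mM MUGal (citrate/KCl, pH 4.6), 37° C for 30-180 min, carbonate-quenched, fluorescence Ex 355/Em 448 nm.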

Molecule | Relative Activity of GLA Variants After No Challenge (NC)
B1 | + (+ = 1.5 to 5 relative activity over Rd3BB (SEQ ID NO: 13))
B2 | + (+ = 1.5 to 5 relative activity over Rd3BB (SEQ ID NO: 13))
B3 | + (+ = 1.5 to 5 relative activity over Rd3BB (SEQ ID NO: 13))
B4 | − (− = <1.5 relative activity to Rd3BB (SEQ ID NO: 13))
B5 | + (+ = 1.5 to 5 relative activity over Rd3BB (SEQ ID NO: 13))
B6 | + (+ = 1.5 to 5 relative activity over Rd3BB (SEQ ID NO: 13))
B7 | + (+ = 1.5 to 5 relative activity over Rd3BB (SEQ ID NO: 13))
B8 | + (+ = 1.5 to 5 relative activity over Rd3BB (SEQ ID NO: 13))
B9 | + (+ = 1.5 to 5 relative activity over Rd3BB (SEQ ID NO: 13))
B10 | + (+ = 1.5 to 5 relative activity over Rd3BB (SEQ ID NO: 13))
B11 | + (+ = 1.5 to 5 relative activity over Rd3BB (SEQ ID NO: 13))
B12 | + (+ = 1.5 to 5 relative activity over Rd3BB (SEQ ID NO: 13))
B13 | + (+ = 1.5 to 5 relative activity over Rd3BB (SEQ ID NO: 13))
B14 | + (+ = 1.5 to 5 relative activity over Rd3BB (SEQ ID NO: 13))
B15 | + (+ = 1.5 to 5 relative activity over Rd3BB (SEQ ID NO: 13))

Assay: HTP-analysis of supernatants pretreated with acid (MUGal hydrolysis)
Assay type: biochemical
Conditions: challenge at pH 3.3; activity of the variant/activity of Rd3BB (SEQ ID NO: 13); yeast supernatant
Method in brief: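 Supernatants from INVSc1 yeast secreting GLA variants were challenged at 37° C. for 1-3 h in McIlvaine buffer at pH 3.3-4.3. Residual activity was then measured on 4 mM MUGal substrate stock at pH 4.8 with citrate buffer pH 4.3, over 30-180 min at 37° C. Reactions were quenched with sodium carbonate and read by fluorescence (Ex 355/Em 448 nm).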

Molecule | Relative Activity of GLA Variants After Challenge at pH 3.3
B1 | ++ (++ = >5 to 10 relative activity over Rd3BB (SEQ ID NO: 13))
B2 | ++ (++ = >5 to 10 relative activity over Rd3BB (SEQ ID NO: 13))
B3 | ++ (++ = >5 to 10 relative activity over Rd3BB (SEQ ID NO: 13))
B4 | + (+ = 1.5 to 5 relative activity over Rd3BB (SEQ ID NO: 13))
B5 | +++ (+++ = >10 relative activity over Rd3BB (SEQ ID NO: 13))
B6 | + (+ = 1.5 to 5 relative activity over Rd3BB (SEQ ID NO: 13))
B7 | ++ (++ = >5 to 10 relative activity over Rd3BB (SEQ ID NO: 13))
B8 | − (− = <1.5 relative activity to Rd3BB (SEQ ID NO: 13))
B9 | ++ (++ = >5 to 10 relative activity over Rd3BB (SEQ ID NO: 13))
B10 | − (− = <1.5 relative activity to Rd3BB (SEQ ID NO: 13))
B11 | ++ (++ = >5 to 10 relative activity over Rd3BB (SEQ ID NO: 13))
B12 | ++ (++ = >5 to 10 relative activity over Rd3BB (SEQ ID NO: 13))
B13 | ++ (++ = >5 to 10 relative activity over Rd3BB (SEQ ID NO: 13))
B14 | ++ (++ = >5 to 10 relative activity over Rd3BB (SEQ ID NO: 13))
B15 | ++ (++ = >5 to 10 relative activity over Rd3BB (SEQ ID NO: 13))

Assay: HTP-analysis of supernatants pretreated with base (MUGal hydrolysis)
Assay type: biochemical
Conditions: challenge at pH 9.7; activity of the variant/activity of Rd3BB (SEQ ID NO: 13); yeast supernatant
Method in brief: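 GLA variants were secreted by transformed INVSc1 yeast grown 66-84 h at 30° C. Supernatants were exposed to neutral-to-basic buffers (pH 7.0-9.7) at 37° C for 1-18 h, then assayed with MUGal in acidic citrate/McIlvaine buffer, with fluorescence read after quenching.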

Molecule | Relative Activity of GLA Variants After Challenge at pH 9.7
B1 | ++ (++ = >5 to 10 relative activity over Rd3BB (SEQ ID NO: 13))
B2 | ++ (++ = >5 to 10 relative activity over Rd3BB (SEQ ID NO: 13))
B3 | ++ (++ = >5 to 10 relative activity over Rd3BB (SEQ ID NO: 13))
B4 | ++ (++ = >5 to 10 relative activity over Rd3BB (SEQ ID NO: 13))
B5 | ++ (++ = >5 to 10 relative activity over Rd3BB (SEQ ID NO: 13))
B6 | ++ (++ = >5 to 10 relative activity over Rd3BB (SEQ ID NO: 13))
B7 | ++ (++ = >5 to 10 relative activity over Rd3BB (SEQ ID NO: 13))
B8 | ++ (++ = >5 to 10 relative activity over Rd3BB (SEQ ID NO: 13))
B9 | ++ (++ = >5 to 10 relative activity over Rd3BB (SEQ ID NO: 13))
B10 | ++ (++ = >5 to 10 relative activity over Rd3BB (SEQ ID NO: 13))
B11 | ++ (++ = >5 to 10 relative activity over Rd3BB (SEQ ID NO: 13))
B12 | ++ (++ = >5 to 10 relative activity over Rd3BB (SEQ ID NO: 13))
B13 | ++ (++ = >5 to 10 relative activity over Rd3BB (SEQ ID NO: 13))
B14 | − (− = <1.5 relative activity to Rd3BB (SEQ ID NO: 13))
B15 | ++ (++ = >5 to 10 relative activity over Rd3BB (SEQ ID NO: 13))
